Residue numbers refer to the chain shown, from its start. Each block holds one binder with its values, some of them ahead of it.
Biological target: CD38 antigen (in solution, Octet analyte) (human, UniProt P28907 43-300, limits assumed)
Test: BLI (Octet Red), antibody captured on AHC sensor, antigen in solution, 1:1 model
Procedure: Binding experiments were performed on Octet Red at 25° C. The antibodies were loaded onto anti-hIgG Fc Capture (AHC) biosensors for 300 seconds. The ligand-loaded sensors were dipped into a two-fold series dilution (starting at 300 nM) of the antigens (CD19 and CD38) for 240 seconds of CD19 and 150 seconds of CD38 for association followed by dissociation for 600 seconds of CD19 and 130 seconds of CD38. Kinetic constants were calculated using a monovalent (1:1) binding model.

Kd: 94.4 nM
B1: BS1M-4 (BS1 anti-CD38 arm CDR-H2 variant RVIPHLGTAN) (bispecific antibody, human IgG1, kappa)
heavy: not shown
VH: QVQLVQSGAEVKKPGSSVKVSCKASGGTFSSYAFSWVRQAPGQGLEWMGRVIPHLGTANSAQKFQGRVTITADKSTSTAYMELSSLRSEDTAVYYCARDDIAALGPFDYWGQGTLVTVSS
light: not shown
notes: BS1 format

Kd: 60.5 nM
B2: BS1M-7 (BS1 anti-CD38 arm CDR-H2 variant RVIPQLGTAN) (bispecific antibody, human IgG1, kappa)
heavy: not shown
VH: B1 VH with H54Q
light: not shown
notes: BS1 format

Source: patent US20240392000A1 (BIOGRAPH 55, published 2024)
